Experimental data published in publication PMC10409766, “Cryo-EM structures of human zinc transporter ZnT7 reveal the mechanism of Zn^2+ uptake into the Golgi apparatus” (Nature Communications, 2023).
Blank lines part the entries; values can stand above or below the binder they belong to.

Legend:
[1] = target: T1, human ZnT7 (hZnT7) with an N-terminal PA-tag (human, UniProt Q8NEW0); assay: ELISA + SEC; liposome ELISA on biotinylated hZnT7 proteoliposomes immobilised on streptavidin-coated microplates (with negative selection on SDS-denatured hZnT7); formation of stable complexes by fluorescence-detection SEC
T1 construct: human zinc transporter ZnT7, UniProt Q8NEW0; cDNA synthesized with codon optimization; the final model holds residues 22-376; In the antibody screening the purified protein was reconstituted into (biotinylated) proteoliposomes; also called hZnT7 WT; wild-type hZnT7

[2] = target: T1, human ZnT7 (hZnT7) with an N-terminal …; assay: cryo-EM structure; single-particle cryo-EM of hZnT7-Fab complexes purified by SEC in 0.02% GDN (Talos Arctica for first maps, CRYO ARM 300II for final data); samples with 1 mM EDTA, with 10 µM Zn2+ or with 200 or 300 µM Zn2+ added; details: both partners purified
[3] = target: the molecule itself; assay: as above

B3: hZnT7ΔHis-loop (residues His176 to Pro221 deleted), PA-tagged (natural protein, human)
chain: MLPLSIKDDEYKPPKFNLFGKISGWFRSILSDKTSRNLFFFLCLNLSFAFVELLYGIWSNCLGLISDSFHMFFDSTAILAGLAASVISKWRDNDAFSYGYVRAEVLAGFVNGLFLIFTAFFIFSEGVERALAPPDVHHERLLLVSILGFVVNLIGIFVFKHGGHGHSHGSGHGHSSLKETTGPSRQILQGVFLHILADTLGSIGVIASAIMMQNFGLMIADPICSILIAILIVVSVIPLLRESVGILMQRTPPLLENSLPQCYQRVQQLQGVYSLQEQHFWTLCSDVYVGTLKLIVAPDADARWILSQTHNIFTQAGVRQLYVQIDFAAM
notes: human zinc transporter ZnT7, UniProt Q8NEW0, with the major portion of the His-loop (His176 to Pro221) deleted; Primers are in Supplementary Data 1; The dimer (copies 2) follows from the 'OF-OF form' and the C2 symmetry; also called hZnT7∆His-loop; pcDNA3.1-PA-hZnT7ΔHis-loop; source: HEK293T, transfected (pcDNA3.1, PEI), purified (anti-PA-tag antibody beads, SEC)
binding result [3]: binds

B4: human ZnT7 (hZnT7) with an N-terminal PA-tag (natural protein)
chain: MLPLSIKDDEYKPPKFNLFGKISGWFRSILSDKTSRNLFFFLCLNLSFAFVELLYGIWSNCLGLISDSFHMFFDSTAILAGLAASVISKWRDNDAFSYGYVRAEVLAGFVNGLFLIFTAFFIFSEGVERALAPPDVHHERLLLVSILGFVVNLIGIFVFKHGGHGHSHGSGHGHSHSLFNGALDQAHGHVDHCHSHEVKHGAAHSHDHAHGHGHFHSHDGPSLKETTGPSRQILQGVFLHILADTLGSIGVIASAIMMQNFGLMIADPICSILIAILIVVSVIPLLRESVGILMQRTPPLLENSLPQCYQRVQQLQGVYSLQEQHFWTLCSDVYVGTLKLIVAPDADARWILSQTHNIFTQAGVRQLYVQIDFAAM
notes: human zinc transporter ZnT7, UniProt Q8NEW0; cDNA synthesized with codon optimization; the final model holds residues 22-376; In the antibody screening the purified protein was reconstituted into (biotinylated) proteoliposomes; also called hZnT7 WT; wild-type hZnT7
stoichiometry N [3]: 2

Second part, the binder after the results:

binding result [1]: binds
B1: mouse monoclonal antibody YN7114-08 against hZnT7 (parent of Fab#1) (antibody, V domains shown)
VH: EVQLQESGPGLVAPSQSLSITCTVSGFSLTNYAVHWVRQSPGKGLEWLGVIWSNGRTDYNAAFISRLSISKDNSKSQVFFKMNSLQADDTAIYYCARKLAYEGAMDYWGQGTSVTVSS
VL: DIVLTQSPASLAVSLRRRATISCRASESVDGYGHSFMHWYQQKSGQPPKLLIYRASNLESGVPARFSGSGSRTDFTLTIDPVEADDAATYYCQQSNEDPYTFGSGTKLEIK
notes: Whole antibody as screened by liposome ELISA and fluorescence-detection SEC; source: mouse hybridoma (MRL/lpr mice immunised with hZnT7 proteoliposomes)

binding result [2]: binds
B2: Fab#1 (YN7114-08), Fab fragment of a mouse monoclonal antibody against hZnT7 (Fab, V domains shown)
VH: B1 VH
VL: B1 VL
notes: the model holds Fab heavy chain residues 1-234; also in the deposited PDB entries; the model holds Fab light chain residues 1-218; also called the Fab fragment; source: Fab fragment of a mouse monoclonal antibody (hybridoma, MRL/lpr mice immunised with hZnT7 proteoliposomes)
